The results in this text go back to patent US20220160663A1 (SEOUL NATIONAL UNIVERSITY R AND DB FOUNDATION, published 2022).

The experiment addresses T1, Glut1 (accession number: NP_006507) WT, HA-tagged (UniProt P11166 1-492).
T1 construct: Expressed in THP-1 cells from a plasmid; Detected in the pull-down by anti-HA Western blot; also called WT Glut1; Glut-HA; not shown: HA tag
T1 sequence (looked up): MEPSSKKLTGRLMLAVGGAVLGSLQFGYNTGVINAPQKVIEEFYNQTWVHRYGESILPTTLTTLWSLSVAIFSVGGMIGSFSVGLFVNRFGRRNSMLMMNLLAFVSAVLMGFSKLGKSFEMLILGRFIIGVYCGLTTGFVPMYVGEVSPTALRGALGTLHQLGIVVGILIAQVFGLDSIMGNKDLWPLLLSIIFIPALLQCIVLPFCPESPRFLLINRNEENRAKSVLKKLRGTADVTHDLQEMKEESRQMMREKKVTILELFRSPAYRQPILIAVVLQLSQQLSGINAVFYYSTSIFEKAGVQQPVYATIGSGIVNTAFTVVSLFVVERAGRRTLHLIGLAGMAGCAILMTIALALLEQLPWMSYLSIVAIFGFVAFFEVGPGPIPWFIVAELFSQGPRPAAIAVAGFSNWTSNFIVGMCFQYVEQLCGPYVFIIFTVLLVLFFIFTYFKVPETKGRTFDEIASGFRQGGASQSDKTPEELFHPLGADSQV
Kind of experiment: Strep pull-down from THP-1 cell extract, anti-HA Western blot. The procedure:
THP-1 cell line was transfected with expression plasmids for TM4SF5-Strep (control vector, WT, N-Glycosylation-deficient mutant; N138A/N155Q), Palmitoylation-deficient mutant (C2/6/9/75/76/80/81/85/189A), Glut1 (accession number: NP_006507) WT, Glut1 K38A, and Glut1 E329Q, and after 48 hours, cell extracts were obtained. The binding of TM4SF5 and Glut1 was confirmed by Western blotting of Glut-HA using an anti-HA antibody by pulling-down with strepavidin agarose resin (Thermo Fisher Scientific).
(A western blot detects proteins with antibodies after separation by electrophoresis.)

B1: TM4SF5-Strep N-Glycosylation-deficient mutant N138A/N155Q (other, human, UniProt O14894 1-197, looked up)
chain: MCTGKCARCVGLSLITLCLVCIVANALLLVPNGETSWTNTNHLSLQVWLMGGFIGGGLMVLCPGIAAVRAGGKGCCGAGCCGNRCRMLRSVFSSAFGVLGAIYCLSVSGAGLRNGPRCLMNGEWGYHFEDTAGAYLLARTLWDRCEAPPRVVPWQVTLFSLLVAASCLEIVLCGIQLVNATIGVFCGDCRKKQDTPH
notes: Expressed in THP-1 cells and pulled down from the cell extract with streptavidin agarose; not shown: Strep tag
As to B1, the binding result is “no binding”.
